B1: YDR181C 326-339 (peptide)
chain: NKVPTNPKKFKKAP
B2: YPL159C 186-199 (peptide)
chain: NLKPFHPPKEKSMN
B3: YEL062W 548-561 (peptide)
chain: NLKPERPSKVSFEM
B4: YBR239C 90-103 (peptide)
chain: NIQPDLPPRKIMIP
B5: YGL076C 93-106 (peptide)
chain: NKIPPKPRKVLQLL
B6: YHL023C 782-795 (peptide)
chain: NIQPNIPLRSYRYL
B7: YDR499W 189-202 (peptide)
chain: NMVPLNPNRIIPDE
B8: YDL046W 61-74 (peptide)
chain: NLDPNPPVRGENLT
B9: CAD39032 203-217 (peptide)
chain: AKLFPGRPPVKKLL
B10: O94820 218-231 (peptide)
chain: GDSKLFRPRRPRSS
B11: Q9UHX5 114-127 (peptide)
chain: GALHPPRPGRGLGQ
B12: Q92529 130-143 (peptide)
chain: GDEPLPRPPRGAPH
B13: Q9NYR0 415-428 (peptide)
chain: GALPPRRPERPVGP
B14: P35568 971-984 (peptide)
chain: GAASISRPTRAVPS
B15: BAC04581 11-25 (peptide)
chain: GAGSPARPPSPRLD
B16: Q9BWN1 26-39 (peptide)
chain: GARSPKRPRLQLPG
B17: Q96LA8 243-256 (peptide)
chain: GEDVLARPQRFAQL
B18: CAD38936 189-203 (peptide)
chain: GDAPPPRPPPPVRP
B19: Q96AA2 6283-6296 (peptide)
chain: GAGQPRRPEAEPGQ
B20: O75077 489-502 (peptide)
chain: GASLFNRPTKLFEP
B21: Q9NXX3 159-172 (peptide)
chain: GAWPLKRPGRISSQ
B22: Q9BYB0 718-731 (peptide)
chain: GAPGPRRPFQQKPL
B23: O15417 267-280 (peptide)
chain: GAKGPRRPGEEAEL
B24: Q9Y5B0 72-85 (peptide)
chain: GSVRPARPERRLRS
B25: O60560 190-203 (peptide)
chain: GAFQPGRPLRVVAT
B26: Q9Y6N3 202-215 (peptide)
chain: GASSIARPFRRDSQ
B27: Q9P244 448-461 (peptide)
chain: GDPAPSRPLRAHFL

Biological target: T1, Yfr024 SH3 (LSB3_YEAST), P43603
T1 chain: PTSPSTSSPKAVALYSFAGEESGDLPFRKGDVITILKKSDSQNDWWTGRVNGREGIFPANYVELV
Test: SPOT array

Binder | normalised SPOT signal, Boehringer light units (BLU); mean over the file's lines of this peptide
B1 | 178
B2 | 417
B3 | 4070
B4 | 27200
B5 | 1730
B6 | 19500
B7 | 1110
B8 | 118

Biological target: T2, Yhr016c SH3 (YSC84_YEAST), P32793
T2 chain: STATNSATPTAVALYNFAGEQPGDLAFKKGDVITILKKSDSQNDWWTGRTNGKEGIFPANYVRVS
Test: SPOT array

Binder | normalised SPOT signal, Boehringer light units (BLU); mean over the file's lines of this peptide
B1 | 210
B2 | 770
B3 | 1350
B4 | 56900
B5 | 172
B6 | 5920
B7 | 504
B8 | 315

Biological target: T3, Boi2 SH3 (BOI2_YEAST), P39969
T3 chain: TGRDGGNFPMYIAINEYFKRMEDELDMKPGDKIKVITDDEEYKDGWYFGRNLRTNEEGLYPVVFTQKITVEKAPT
Test: SPOT array

Binder | normalised SPOT signal, Boehringer light units (BLU); mean over the file's lines of this peptide
B1 | 70.3
B2 | 72.2
B3 | 52.6
B4 | 111
B5 | 99.5
B6 | 760
B7 | 143
B8 | 18.3

Biological target: T4, Boi1 SH3 (BOI1_YEAST), P38041
T4 chain: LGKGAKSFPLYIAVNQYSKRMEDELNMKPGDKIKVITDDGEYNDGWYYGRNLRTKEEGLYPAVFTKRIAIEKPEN
Test: SPOT array

Binder | normalised SPOT signal, Boehringer light units (BLU); mean over the file's lines of this peptide
B1 | 126
B2 | 109
B3 | 103
B4 | 1500
B5 | 63.6
B6 | 13200
B7 | 31.3
B8 | 81.4

Biological target: T5, amphyphisin SH3 (AMPH_HUMAN), P49418
T5 chain: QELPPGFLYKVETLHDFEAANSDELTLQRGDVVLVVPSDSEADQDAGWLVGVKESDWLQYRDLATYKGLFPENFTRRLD
Test: SPOT array

Binder | normalised SPOT signal, Boehringer light units (BLU); mean over the file's lines of this peptide
B9 | 93.5
B10 | 970
B11 | 441
B12 | 155
B13 | 3480
B14 | 957
B15 | 339
B16 | 18.6
B17 | 194
B18 | 1250
B19 | 10.5
B20 | 59.5
B21 | 1500
B22 | 6.3
B23 | 0
B24 | 12500
B25 | 1260
B26 | 671
B27 | 9150

Biological target: T6, Rvs167 SH3 (RV167_YEAST), P39743
T6 chain: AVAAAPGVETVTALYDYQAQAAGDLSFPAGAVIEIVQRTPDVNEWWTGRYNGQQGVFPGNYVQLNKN
Test: SPOT array

Binder | normalised SPOT signal, Boehringer light units (BLU); mean over the file's lines of this peptide
B1 | 20.2
B2 | 128
B3 | 805
B4 | 33000
B5 | 188
B6 | 915
B7 | 340
B8 | 26.6

Each binder was assayed against endophilin SH3 (SH3G2_HUMAN), Q99962 (assay: SPOT array).

Binder | normalised SPOT signal, Boehringer light units (BLU); mean over the file's lines of this peptide
B9 | 13400
B10 | 233
B11 | 78.6
B12 | 253
B13 | 13800
B14 | 202
B15 | 15300
B16 | 1210
B17 | 7.6
B18 | 14700
B19 | -0
B20 | 66.2
B21 | 213
B22 | 2000
B23 | 39.5
B24 | 18700
B25 | 148
B26 | 120
B27 | 5050

Reference: article PMC314469, “Protein Interaction Networks by Proteome Peptide Scanning” (PLoS Biology, 2004)
